Results published in publication PMC6528599.

Target: T1, GlaR (YugA) (Lactococcus lactis IL1403) (UniProt Q7DAT6)
T1 sequence: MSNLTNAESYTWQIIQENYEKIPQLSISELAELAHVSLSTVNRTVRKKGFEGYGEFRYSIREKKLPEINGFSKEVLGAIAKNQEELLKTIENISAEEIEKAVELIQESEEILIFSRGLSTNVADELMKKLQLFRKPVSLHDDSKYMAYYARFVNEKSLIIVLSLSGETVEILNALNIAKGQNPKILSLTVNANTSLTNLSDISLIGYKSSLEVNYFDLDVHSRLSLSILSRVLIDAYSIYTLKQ
Assay: EMSA
Conditions: EMSA: 1 nM DNA, 10 mM Tris-HCl pH 8.5, 10 mM MgCl2, 100 mM KCl, 0.1 mg/ml BSA (printed as 10x binding buffer), 250 mM galactose, 20 ul, 20 min at 37 C; 5% PAGE …

**Q.** For “GGACATTGGCATCTACTTGAAGAAGAAGCAGGAACATGGTTAAATATTGACGGATTCCATATGGGTGTAGGTGGAGATGATTCATGGAGTCCAAGTGTCGCTCAGGAATATTTATTGACAAAGGGAAATTATCATTATGAAGTTAGTTTTAAATTAACGTGATGATCCAAATTTTCAAGAATTTGATATAATATAGAGAAAATGGAGGTTCTTATGACGGTTTTAGTTCTTGGTGGAGCAGGATACGTGGGAAGTCACGCGGTAGATATGCTTCTTAAACGTGGTTACGATGTGGCAG (double strand) [galE upstream region]”, which binding is on record?
**A.** no binding

**Q.** How did the binding turn out when “CCATTACATTTTCATGACGATTACATACAAAAAAAGCTCAAAAATTTGAGCTTTTTTTTTCGAATTTTAGATAATTAACTAGTAACCTTTTGGATGACTTTGGTGCCATTTCCAAGCGTTCGTAATAATGTGCTCTAAATCATTTTGTGCTTTCCAACCCAAAATTTCACCAGCTTTTGTTGAATCAGCAACCAGCTCATCTGGGTCTCCTGCACGGCGTTCACCCATTTGGCTTGGAATTTCTTTACCTGTTACTTTTCGTGCGGTTTCAAGCACTTCAAG (double strand)” was run?
**A.** no binding
